# Measurements: patent US20090263894A1 (AbbVie / Abbott, published 2009)
# T1: NGAL rAg Q117A displayed on yeast (human, UniProt P80188 21-198)
# T1 construct: Yeast display AGA2 fusion as m5
# T1 chain: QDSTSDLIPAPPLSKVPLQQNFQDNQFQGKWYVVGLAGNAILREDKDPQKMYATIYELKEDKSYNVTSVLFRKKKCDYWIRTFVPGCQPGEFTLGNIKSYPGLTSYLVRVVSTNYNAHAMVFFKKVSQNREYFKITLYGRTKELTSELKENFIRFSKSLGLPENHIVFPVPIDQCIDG
# T2: NGAL rAg H118A displayed on yeast (human, UniProt P80188 21-198)
# T2 construct: Yeast display AGA2 fusion as m5
# T2 chain: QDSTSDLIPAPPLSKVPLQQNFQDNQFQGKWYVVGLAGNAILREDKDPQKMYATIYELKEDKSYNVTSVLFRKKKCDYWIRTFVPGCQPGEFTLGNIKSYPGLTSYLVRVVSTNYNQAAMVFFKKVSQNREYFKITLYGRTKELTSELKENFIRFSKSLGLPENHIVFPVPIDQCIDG
# T3: NGAL rAg S112A displayed on yeast (human, UniProt P80188 21-198)
# T3 construct: Yeast display AGA2 fusion as m5
# T3 chain: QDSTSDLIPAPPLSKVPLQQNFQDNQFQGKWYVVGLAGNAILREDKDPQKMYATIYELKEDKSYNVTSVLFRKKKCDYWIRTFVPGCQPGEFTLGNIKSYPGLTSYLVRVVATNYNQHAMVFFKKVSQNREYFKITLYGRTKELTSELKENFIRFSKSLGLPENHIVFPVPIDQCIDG
# T4: NGAL rAg A119G displayed on yeast (human, UniProt P80188 21-198)
# T4 construct: Yeast display AGA2 fusion as m5
# T4 chain: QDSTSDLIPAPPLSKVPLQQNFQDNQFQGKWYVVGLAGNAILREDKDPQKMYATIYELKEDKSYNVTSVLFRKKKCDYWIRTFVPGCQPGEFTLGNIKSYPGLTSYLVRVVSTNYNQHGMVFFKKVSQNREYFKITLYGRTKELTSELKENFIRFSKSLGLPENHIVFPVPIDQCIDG
# T5: NGAL rAg R109A displayed on yeast (human, UniProt P80188 21-198)
# T5 construct: Yeast display AGA2 fusion as m5
# T5 chain: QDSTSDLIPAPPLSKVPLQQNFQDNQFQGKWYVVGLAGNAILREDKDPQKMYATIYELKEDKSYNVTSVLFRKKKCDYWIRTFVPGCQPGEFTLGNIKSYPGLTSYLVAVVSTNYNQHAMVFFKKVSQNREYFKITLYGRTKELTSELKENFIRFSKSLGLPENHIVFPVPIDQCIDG
# B1: anti-NGAL monoclonal antibody 1-2322-455 (antibody, V domains shown)
# VH: EVQLVESGGGLVQPGGSLKLSCAASGFTFNNYYMSWVRQTPERRLEWVAYISSSGGSTYYSDSVRGRFTISRDTARNTLYLQMTSLKSEDTAMYYCARHFGDYSYFDYWGQGTTLTVSS
# VL: DIQMTQSPASLSASVGETVTITCRASENFYSYLAWYQQKQGKSPQLLVYNAKTLAEGVPSRFSGSGSGTQFSLKINSLQPEDFGTYYCQHHYDIPLTFGAGTKLELKR
# B2: anti-NGAL monoclonal antibody 1-903-430 (antibody, V domains shown)
# VH: KIQLVQSGPELKKPGETVKISCKASGYTFTNYGMNWVKQAPGKGLKWMGWININTGEPTYAEEFKGRFAFSLETSATTAFLQINNLKNEDTATYLCARDSYSGGFDYWGQGTIVTVSS
# VL: DIVMTQSPSSLSVSAGEKVTLSCKSSQSLLISGDQKNYLAWYQQKPGQPPKLLIYGASTRDSGVPDRFTGSGSGADFTLTISSVQAEDLAVYYCQNDHSFPPTFGAGTKLELKR
# Key:
# [1] = biological target: T1, NGAL rAg Q117A displayed on yeast; assay: flow cytometry titration of the mAb on yeast displaying the NGAL antigen, detection with GaM-PE, fractional binding
# [2] = biological target: T2, NGAL rAg H118A displayed on yeast; assay: as above
# [3] = biological target: T6, wild-type NGAL antigen displayed on yeast (AGA2 fusion) (human, UniProt P80188 21-198); assay: as above
# T6 construct: also called WT
# [4] = biological target: T3, NGAL rAg S112A displayed on yeast; assay: as above
# [5] = biological target: T4, NGAL rAg A119G displayed on yeast; assay: as above
# [6] = biological target: T5, NGAL rAg R109A displayed on yeast; assay: flow cytometry, mAb titrated on yeast displaying NGAL; highest mAb concentration tested listed as KD
# Description: The side chain of each of the NGAL rAg residues identified from the epitope selections was altered by site-directed mutagenesis to alanine to confirm the functional epitope (direct contact residues) of each NGAL mAb subclone.
# For these experiments, observed fluorescence (F) was used to solve for KD using equation [1]. The KD derived from equation [1] one was then used in equation [2] to derive the change in Gibbs free binding energy upon alanine substitution. The KD is read from the abscissa of each of the curves at the inflection point.
Binder,EC50 (read off the curve) [1] [nM],EC50 (read off the curve) [2] [nM],EC50 (read off the curve) [3] [nM],EC50 (read off the curve) [4] [nM],EC50 (read off the curve) [5] [nM],Kd [6] [nM]
B1,~0.03,~0.2,~0.006,~0.1,~0.007,
B2,,,,,,> 5000
